Among the data in patent CN114958811A are 亲和力 values, retold here.

The target in the assay is RBD-His (近岸生物 货号 DRA42) (SARS-CoV-2) (UniProt P0DTC2).

For “hACE2-Fc融合蛋白 (fusion of the human ACE2 extracellular domain with the Fc fragment of human IgG1) (Fc fusion)”, the 亲和力 is 0.54 nM.
